Data published in the RNAGym collection of RNA variant scans (doi:10.1093/nar/gkz1192).

B1: CPEB3 Ribozyme (parent)
chain: UAACAGGGGGCCACAGCAGAAGCGUUCACGUCGCAGCCCCUGUCAGAUUCUGGUGAAUCUGCGAAUUCUGCUGUAUAUCUC

Variants of: B1
Assay: self-cleavage, relative activity (ratio to wild type); higher = more cleavage; in vitro, sequencing
In short: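 Libraries of CPEB3 self-cleaving ribozyme mutants came from rounds of error-prone PCR and carried barcodes, which DNA sequencing matched to variants. In vitro transcription used T7 RNA polymerase at 37°C for 5 hours, with a further 15 min in DNase I before EDTA stopped the reaction; the ribozymes cleaved during both steps. The RNA was reverse transcribed with template switching and sequenced on Illumina. Relative activity is the cleaved/total read fraction of a variant divided by that of the unmutated ribozyme, averaged over three batches with at least 5 reads.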

Variant	self-cleavage
UAACAGGGGGCCACAGCAGAAGCGUUCACGUCGCAGCCCCUGUCAGAUUCUGCUGAAUCUGCGUAUUCUGCUGUAUAUCUC [G53C A64U]	0.42
UAACAGGGGGCCACAGCAGAAGCGUUCACGUCGCAGCCCCUGUCAGAUUCUGCUGAAUCUGCGGAUUCUGCUGUAUAUCUC [G53C A64G]	1.05
UAACAGGGGGCCACAGCAGAAGCGUUCACGUCGCAGCCCCUGUCAGAUUCUGCUGAACCUGCGAAUUCUGCUGUAUAUCUC [G53C U58C]	0.68
UAACAGGGGGCCACAGCAGAAGCGUUCACGUCGCAGCCCCUGUCAGAUUCUGAUGAAUCUGCGAUUUCUGCUGUAUAUCUC [G53A A65U]	0.22
UAACAGGGGGCCACAGCAGAAGCGUUCACGUCGCAGCCCCUGUCAGAUUCUGAUGAAUCUGCGAGUUCUGCUGUAUAUCUC [G53A A65G]	0.52
UAACAGGGGGCCACAGCAGAAGCGUUCACGUCGCAGCCCCUGUCAGAUUCUGCUAAAUCUGCGAAUUCUGCUGUAUAUCUC [G53C G55A]	0.98
UAACAGGGGGCCACAGCAGAAGCGUUCACGUCGCAGCCCCUGUCAGAUUCUGAUGAAUCUGCGAAUACUGCUGUAUAUCUC [G53A U67A]	0.55
UAACAGGGGGCCACAGCAGAAGCGUUCACGUCGCAGCCCCUGUCAGAUUCUGAUGAAUCUGCGAAUCCUGCUGUAUAUCUC [G53A U67C]	0.41
UAACAGGGGGCCACAGCAGAAGCGUUCACGUCGCAGCCCCUGUCAGAUUCUGAUGGAUCUGCGAAUUCUGCUGUAUAUCUC [G53A A56G]	1
UAACAGGGGGCCACAGCAGAAGCGUUCACGUCGCAGCCCCUGUCAGAUUCUGAUGUAUCUGCGAAUUCUGCUGUAUAUCUC [G53A A56U]	0.79
UAACAGGGGGCCACAGCAGAAGCGUUCACGUCGCAGCCCCUGUCAGAUUCUGCUGAAUCAGCGAAUUCUGCUGUAUAUCUC [G53C U60A]	0.56
UAACAGGGGGCCACAGCAGAAGCGUUCACGUCGCAGCCCCUGUCAGAUUCUGCUGAAUCCGCGAAUUCUGCUGUAUAUCUC [G53C U60C]	0.55
UAACAGGGGGCCACAGCAGAAGCGUUCACGUCGCAGCCCCUGUCAGAUUCUGCUGAAUCUGCGAAUUCUGCUGUUUAUCUC [G53C A75U]	1.12
UAACAGGGGGCCACAGCAGAAGCGUUCACGUCGCAGCCCCUGUCAGAUUCUGCUGAAUCUGCGAAUUCUGCUGUGUAUCUC [G53C A75G]	1.16
UAACAGGGGGCCACAGCAGAAGCGUUCACGUCGCAGCCCCUGUCAGAUUCUGUUGAAUCUGCGAGUUCUGCUGUAUAUCUC [G53U A65G]	0.61
UAACAGGGGGCCACAGCAGAAGCGUUCACGUCGCAGCCCCUGUCAGAUUCUGAUGAGUCUGCGAAUUCUGCUGUAUAUCUC [G53A A57G]	0.97
UAACAGGGGGCCACAGCAGAAGCGUUCACGUCGCAGCCCCUGUCAGAUUCUGCUGAAUCUGCGAAUUCUGCUGUAUAUCUC [G53C]	1.13
UAACAGGGGGCCACAGCAGAAGCGUUCACGUCGCAGCCCCUGUCAGAUUCUGUUGAAUCUGCGAAUUCUGCUGUAUAUCUC [G53U]	1.21
UAACAGGGGGCCACAGCAGAAGCGUUCACGUCGCAGCCCCUGUCAGAUUCUGAUGAAUCUGCGAAUUCUGCUGUAUAUCUC [G53A]	1.13
UAACAGGGGGCCACAGCAGAAGCGUUCACGUCGCAGCCCCUGUCAGAUUCUGACGAAUCUGCGAAUUCUGCUGUAUAUCUC [G53A U54C]	0.92
UAACAGGGGGCCACAGCAGAAGCGUUCACGUCGCAGCCCCUGUCAGAUUCUGAUGAAUCUGCGGAUUCUGCUGUAUAUCUC [G53A A64G]	0.98
UAACAGGGGGCCACAGCAGAAGCGUUCACGUCGCAGCCCCUGUCAGAUUCUGAUGAAUCUGCGUAUUCUGCUGUAUAUCUC [G53A A64U]	0.48
UAACAGGGGGCCACAGCAGAAGCGUUCACGUCGCAGCCCCUGUCAGAUUCUGCUGAAUCUGCGAAUUCUGCUGUAUACCUC [G53C U78C]	1.08

Variant	self-cleavage
UAACAGGGGGCCACAGCAGAAGCGUUCACGUCGCAGCCCCUGUCAGAUUCUGAUGAAUCUGCGAAUUCUGCUGUAUACCUC [G53A U78C]	1.06
UAACAGGGGGCCACAGCAGAAGCGUUCACGUCGCAGCCCCUGUCAGAUUCUGAUGAAUCUGCGAAUUCUGCUGUACAUCUC [G53A U76C]	1.01
UAACAGGGGGCCACAGCAGAAGCGUUCACGUCGCAGCCCCUGUCAGAUUCUGAUGAAUCUGCGAACUCUGCUGUAUAUCUC [G53A U66C]	0.53
UAACAGGGGGCCACAGCAGAAGCGUUCACGUCGCAGCCCCUGUCAGAUUCUUGUGAAUCUGCGAAUUCUGCUGUAUACCUC [G52U U78C]	1.08
UAACAGGGGGCCACAGCAGAAGCGUUCACGUCGCAGCCCCUGUCAGAUUCUGAUGAAUCUACGAAUUCUGCUGUAUAUCUC [G53A G61A]	0.73
UAACAGGGGGCCACAGCAGAAGCGUUCACGUCGCAGCCCCUGUCAGAUUCUGAUGAAUCUGCGAAUUCAGCUGUAUAUCUC [G53A U69A]	0.67
UAACAGGGGGCCACAGCAGAAGCGUUCACGUCGCAGCCCCUGUCAGAUUCUGAUGAAUCUGCGAAUUCCGCUGUAUAUCUC [G53A U69C]	0.69
UAACAGGGGGCCACAGCAGAAGCGUUCACGUCGCAGCCCCUGUCAGAUUCUGAUGAAUCAGCGAAUUCUGCUGUAUAUCUC [G53A U60A]	0.68
UAACAGGGGGCCACAGCAGAAGCGUUCACGUCGCAGCCCCUGUCAGAUUCUGAUGAAUCCGCGAAUUCUGCUGUAUAUCUC [G53A U60C]	0.69
UAACAGGGGGCCACAGCAGAAGCGUUCACGUCGCAGCCCCUGUCAGAUUCUGCUGAGUCUGCGAAUUCUGCUGUAUAUCUC [G53C A57G]	1.1
UAACAGGGGGCCACAGCAGAAGCGUUCACGUCGCAGCCCCUGUCAGAUUCUGCUGAAUCUGCGAGUUCUGCUGUAUAUCUC [G53C A65G]	0.67
UAACAGGGGGCCACAGCAGAAGCGUUCACGUCGCAGCCCCUGUCAGAUUCUGAUGAAUCUGCGAAUUCUGCCGUAUAUCUC [G53A U72C]	1.23
UAACAGGGGGCCACAGCAGAAGCGUUCACGUCGCAGCCCCUGUCAGAUUCUGAUGAAUCUGCGAAUUCUGCAGUAUAUCUC [G53A U72A]	0.79
UAACAGGGGGCCACAGCAGAAGCGUUCACGUCGCAGCCCCUGUCAGAUUCUGAUGAAUCUGCGAAUUCUGCGGUAUAUCUC [G53A U72G]	1.22
UAACAGGGGGCCACAGCAGAAGCGUUCACGUCGCAGCCCCUGUCAGAUUCUGAUGAAUCUGCGAAUUCUACUGUAUAUCUC [G53A G70A]	0.62
UAACAGGGGGCCACAGCAGAAGCGUUCACGUCGCAGCCCCUGUCAGAUUCUGAUGAAUCUGCGAAUUCUUCUGUAUAUCUC [G53A G70U]	0.44
UAACAGGGGGCCACAGCAGAAGCGUUCACGUCGCAGCCCCUGUCAGAUUCUGAUGAAUCUGCGAAUUCUGCUCUAUAUCUC [G53A G73C]	1.14
UAACAGGGGGCCACAGCAGAAGCGUUCACGUCGCAGCCCCUGUCAGAUUCUGAUGAAUCUGCGAAUUCUGCUGUAUAUCAC [G53A U80A]	1.18
UAACAGGGGGCCACAGCAGAAGCGUUCACGUCGCAGCCCCUGUCAGAUUCUGAUGAAUCUGCGAAUUCUGCUGUAUAUCCC [G53A U80C]	1.17
UAACAGGGGGCCACAGCAGAAGCGUUCACGUCGCAGCCCCUGUCAGAUUCUGCUGAAUCUGCGAAUUCAGCUGUAUAUCUC [G53C U69A]	0.49
UAACAGGGGGCCACAGCAGAAGCGUUCACGUCGCAGCCCCUGUCAGAUUCUGCUGAAUCUGCGAAUUCCGCUGUAUAUCUC [G53C U69C]	0.64
UAACAGGGGGCCACAGCAGAAGCGUUCACGUCGCAGCCCCUGUCAGAUUCUGCUGGAUCUGCGAAUUCUGCUGUAUAUCUC [G53C A56G]	0.53
UAACAGGGGGCCACAGCAGAAGCGUUCACGUCGCAGCCCCUGUCAGAUUCUGAUGAAUCUGCGAAUUCUGCUGUAUAUUUC [G53A C79U]	1.18

Variant	self-cleavage
UAACAGGGGGCCACAGCAGAAGCGUUCACGUCGCAGCCCCUGUCAGAUUCUGAUGAAUCUGCGAAUUCUGCUGUAUAUAUC [G53A C79A]	1.22
UAACAGGGGGCCACAGCAGAAGCGUUCACGUCGCAGCCCCUGUCAGAUUCUGAUGAAGCUGCGAAUUCUGCUGUAUAUCUC [G53A U58G]	0.24
UAACAGGGGGCCACAGCAGAAGCGUUCACGUCGCAGCCCCUGUCAGAUUCUGAUGAAACUGCGAAUUCUGCUGUAUAUCUC [G53A U58A]	0.48
UAACAGGGGGCCACAGCAGAAGCGUUCACGUCGCAGCCCCUGUCAGAUUCUGAUGAACCUGCGAAUUCUGCUGUAUAUCUC [G53A U58C]	0.98
UAACAGGGGGCCACAGCAGAAGCGUUCACGUCGCAGCCCCUGUCAGAUUCUGAUGAAUCUGCGAAUUCUGCUGUAUGUCUC [G53A A77G]	1.18
UAACAGGGGGCCACAGCAGAAGCGUUCACGUCGCAGCCCCUGUCAGAUUCUGUUGAAUCUGCGGAUUCUGCUGUAUAUCUC [G53U A64G]	0.97
UAACAGGGGGCCACAGCAGAAGCGUUCACGUCGCAGCCCCUGUCAGAUUCUGCUGAAUCUGCGAAUUCUGCAGUAUAUCUC [G53C U72A]	1.19
UAACAGGGGGCCACAGCAGAAGCGUUCACGUCGCAGCCCCUGUCAGAUUCUGCUGAAUCUGCGAAUUCUGCCGUAUAUCUC [G53C U72C]	1.21
UAACAGGGGGCCACAGCAGAAGCGUUCACGUCGCAGCCCCUGUCAGAUUCUGCUGAAUCUGCGAAUUCUGCUGUAUAUCCC [G53C U80C]	0.96
UAACAGGGGGCCACAGCAGAAGCGUUCACGUCGCAGCCCCUGUCAGAUUCUGCUGAAUCUGCGAAUUCUGCUGUAUAUCAC [G53C U80A]	1.22
UAACAGGGGGCCACAGCAGAAGCGUUCACGUCGCAGCCCCUGUCAGAUUCUGAUAAAUCUGCGAAUUCUGCUGUAUAUCUC [G53A G55A]	0.87
UAACAGGGGGCCACAGCAGAAGCGUUCACGUCGCAGCCCCUGUCAGAUUCUGAUCAAUCUGCGAAUUCUGCUGUAUAUCUC [G53A G55C]	1.01
UAACAGGGGGCCACAGCAGAAGCGUUCACGUCGCAGCCCCUGUCAGAUUCUGAUGAAUCUGCGAAUUCUGCUGUCUAUCUC [G53A A75C]	1.18
UAACAGGGGGCCACAGCAGAAGCGUUCACGUCGCAGCCCCUGUCAGAUUCUGCUGAAUCUGCGAAUUCUGCUGUAAAUCUC [G53C U76A]	1.22
UAACAGGGGGCCACAGCAGAAGCGUUCACGUCGCAGCCCCUGUCAGAUUCUGCUGAAUCUGCGAAUUCUGCUGUACAUCUC [G53C U76C]	1.06
UAACAGGGGGCCACAGCAGAAGCGUUCACGUCGCAGCCCCUGUCAGAUUCUGAUGAAUUUGCGAAUUCUGCUGUAUAUCUC [G53A C59U]	1.07
UAACAGGGGGCCACAGCAGAAGCGUUCACGUCGCAGCCCCUGUCAGAUUCUGAUGAAUAUGCGAAUUCUGCUGUAUAUCUC [G53A C59A]	0.58
UAACAGGGGGCCACAGCAGAAGCGUUCACGUCGCAGCCCCUGUCAGAUUCUGCUGAAUCUGCGAAUGCUGCUGUAUAUCUC [G53C U67G]	0.54
UAACAGGGGGCCACAGCAGAAGCGUUCACGUCGCAGCCCCUGUCAGAUUCUGCUGAAUCUGCGAAUCCUGCUGUAUAUCUC [G53C U67C]	0.17
UAACAGGGGGCCACAGCAGAAGCGUUCACGUCGCAGCCCCUGUCAGAUUCUUGUGAAUCUGCGAAUUCUGCUGUAUAUCCC [G52U U80C]	1.05
UAACAGGGGGCCACAGCAGAAGCGUUCACGUCGCAGCCCCUGUCAGAUUCUGCUGAAUCUGGGAAUUCUGCUGUAUAUCUC [G53C C62G]	0.29
UAACAGGGGGCCACAGCAGAAGCGUUCACGUCGCAGCCCCUGUCAGAUUCUGCUGAAUCUGCGAAUUCUGUUGUAUAUCUC [G53C C71U]	0.57
